Sequences and labels used below:
B1: Thermus thermophilus ClpB, wild type (natural protein)
chain: not shown
notes: ClpB of Thermus thermophilus, cloned into pET28b with a six-histidine tag preceded by a TEV site; Homohexamer; also called TT ClpB; WT; source: E. coli BL21 (DE3) pLysS, purified (Ni-NTA, HiPrep DEAE FF)
B2: ClpB S428C-S771C, double-labeled subunit (natural protein)
chain: not shown
modifications: Alexa 488 C5 maleimide (donor) and Alexa 594 C5 maleimide (acceptor) on the cysteines at 428 and 771
notes: ClpB of Thermus thermophilus with two cysteines for the dyes; S428C-S771C is the main construct; also called double-labeled subunits; labeled ClpB; source: E. coli BL21 (DE3) pLysS, purified (Ni-NTA, HiPrep DEAE FF), labeled

Data set [1] deals with the molecule itself. Briefly: not stated; test of hexamer assembly shown in Supplementary Figs. 3 and 13 and the supplementary section “Validating the structural integrity of ClpB hexamers”; 2 mM ATP for the labeled sample.
Data set [2] concerns the target B1. Briefly: native gel or EMSA + SEC; native gel electrophoresis and gel filtration chromatography of reassembled mixed labeled ClpB and of the WT. As to conditions: both partners purified.

Broadly, the stoichiometry N is the number of molecules, sites or subunits per partner or assembly. As for B1, the “stoichiometry N” value in data set [1] is 6. With B2, in data set [2], the binding result was “binds”.

The values above are taken from publication PMC6440998, “Tunable microsecond dynamics of an allosteric switch regulate the activity of a AAA+ disaggregation machine” (Nature Communications, 2019).
